Earlier results on one substance are cited in article PMC7717565, “Structure of the Lifeact–F-actin complex” (PLoS Biology, 2020).

For this series, the target named is F-actin (Oryctolagus cuniculus) (UniProt P68135).

On to Lifeact Lifeact (from UniProt Q08641), for which the Kd (usually the constant that tells how readily two partners part at equilibrium) is 13.2 µM.
